This is an account of results in patent publication US20130244232A1, “HIGH-EFFICIENCY CATALYSTS, PREPARATION AND USE THEREOF” (priority 2012, published 2013).

For orientation: kcat means the number of substrate molecules converted per active site and unit of time at saturation. The term Km denotes the concentration of substrate that gives half-maximal velocity.

Series [1] in a line: Peroxidase activity: ABTS oxidation with H2O2 (formation of ABTS+• radical cation at 660 nm). In kind it is biochemical. To be noted: for Specific activity: ABTS oxidation with H2O2, pH 6.5. How it is done:
The peroxidase activity of the compound on the secondary substrate ABTS was evaluated by following the formation of the ABTS^+• radical cation, in the presence of H2O2.
The reaction was followed by using spectrophotometry, measuring the appearance of the products in the reaction medium. The formation of ABTS^+• cation radical was followed at 660 nm (λmax (ε)=660 nm (1.40×10^4 M^−1cm^−1)). The reaction was performed in 50% TFE (v/v) 100 mM phosphate buffer, pH 6.5, using a 2.0×10^−7 M catalyst concentration.
Kinetic parameters of the compound were determined by varying the H2O2 concentration using fixed concentrations of the reducing substrates, and vice versa.
In more details, in the experiments performed at various H2O2 concentrations (in the range 0.01÷ 200 mM) the ABTS concentration was kept constant at 0.1 mM. In the experiments performed at various ABTS concentrations (in the range 0.005÷ 0.1 mM) the H2O2 concentration was 50 mM.
The experiments were performed in 50% TFE (v/v) 100 mM phosphate buffer, pH 6.5. As described in the example 10, the catalytic process was evaluated by following the formation of the ABTS^+• radical cation at 660 nm (c=[…] cm^−1). Kinetic parameters of the compound were determined by varying the H2O2 concentration using fixed concentrations of the reducing substrates, and vice versa.
In more details, in the first experiment the ABTS and the conjugate concentrations were kept constant at 0.1 mM and 2 10^−7 M, respectively, and the H2O2 concentration was varied in the range 10-100 mM. In the second experiment, the H2O2 and the conjugate concentrations were fixed at 50 mM and 2 10^−7 M, respectively, and the ABTS concentration was varied in the range 0.005÷ 0.1 mM.

The nature of series [2]: Phenol nitration (NaNO2/H2O2), HPLC analysis. In kind it is biochemical. To be noted: 40 min, room temperature, substrate and oxidant 1.0 mM, 40 mM NO2−, 0.2 μM catalyst, pH 6.5, 50% TFE. The method, then:
For the compound Fe(III)-3,7,12,17-tetramethyl-porphyrin-2(18)-N9epsilon-(Ace-Asp1-Glu2-Gln3-Gln4-Leu5-His6-Ser7-Gln8-Lys9-Arg10-Lys11-Ile12-Thr13-Leu14-NH2)-18(2)-N9epsilon-(Ace-Asp1-Glu2-Gln3-Gln4-Leu5-Ser6-Ser7-Gln8-Lys9-Arg10-NH2)-di-propionammide, whose synthesis is described in example 1, the ability to catalyze phenol nitration was evaluated. […] The concentrations of the starting material and products were determined from calibration curves constructed using commercial samples and 4-cyanophenol as internal standard. Standard incubation for phenol nitration were performed at 1 mM phenol in the presence of 0.2 μM catalyst, 20 mM NaNO2 and 3 mM H2O2 in phosphate buffer, pH 6.5, 50% TFE (v/v).
The reactions were performed at room temperature with an incubation time of 40 min. […] The yield of 4- and 2-nitrophenol at 40 min reaction time increased by increasing H2O2 NO2″ and phenol concentrations. The maximum yield of nitrophenols (4- and 2-) was obtained at a substrate and oxidant concentrations of 1.0 mM, and at 40 mM NO2^− concentration, respectively.

Series [3] can be described thus: Peroxidase activity: guaiacol oxidation with H2O2 (tetraguaiacol formation at 470 nm). In kind it is biochemical. The method, then:
The peroxidase activity on the guaiacol substrate was evaluated by following the formation of guaiacol oxidation product, tetraguaiacol. Changes in the absorbance at 470 nm were measured, considering a ε470=2.66×10^4 M^−1cm^−1.
In details, in the experiments performed at various H2O2 concentrations (in the range 1÷ 40 mM), the guaiacol concentration was kept constant at 0.1 mM. In the experiments performed at various guaiacol concentrations, in the range 0.0025÷ 0.07 mM, the H2O2 concentration was 10 mM.

The conditions of series [4]: ABTS oxidation with H2O2, pH 7.0; cited from earlier work.
For series [5] the following is noted: in the presence of lactoperoxidase; cited from earlier work.
The mark [6] stands for this setting: ABTS oxidation with H2O2, pH 6.5, 50% TFE (v/v) 100 mM phosphate buffer.
The mark [7] stands for this setting: ABTS oxidation with H2O2, pH 6.5, 50% TFE (v/v) 100 mM phosphate buffer, read-out: Km^H2O2.
[8] abbreviates: AH2 = ABTS, pH 6.5, 50% TFE (v/v) 100 mM phosphate buffer, read-out: Km^AH2.

Where two headings read alike, the source gives them in different places.

On to “3,7,12,17-tetramethyl-porphyrin-2 (18)-N9epsilon-(Ace-Asp1-Glu2-Gln3-Gln4-Leu5-His6-Ser7-Gln8-Lys9-Arg10-Lys11-Ile12-Thr13-Leu14-NH2)-18(2)-N9epsilon-(Ace-Asp1-Glu2-Gln3-Gln4-Leu5-Gly6-Ser7-Gln8-Lys9-Arg10-NH2)-di-propionamide [Example 7]”, for which, in series [1], the Specific activity was determined as 7.976 mol/g/min. Besides, the turnover number (kcat) in series [1] (setting [6]) is 468 s⁻¹. Besides, the Km turned out to be 46000 µM in series [1] (setting [7]) and 125 µM in series [1] (setting [8]).

Take “3,7,12,17-tetramethyl-porphyrin-2(18)-N9epsilon-(Ace-Asp1-Glu2-Gln3-Gln4-Leu5-His6-Ser7-Gln8-Lys9-Arg10-Lys11-Ile12-Thr13-Leu14-NH2)-18(2)-N9epsilon-(Ace-Asp1-Glu2-Gln3-Gln4-Leu5-Ser6-Ser7-Gln8-Lys9-Leu10-NH2)-di-propionamide [Example 9]”: in series [1], the Specific activity turned out to be 2.890 mol/g/min. Further, the catalytic constant (kcat) in series [1] (setting [6]) was 169 s⁻¹. In addition, the Km stood at 20000 µM in series [1] (setting [7]) and 29 µM in series [1] (setting [8]).

Consider “3,7,12,17-tetramethyl-porphyrin-2(18)-N9epsilon-(Ace-Asp1-Glu2-Gln3-Gln4-Leu5-His6-Ser7-Gln8-Lys9-Arg10-Lys11-Ile12-Thr13-Leu14-NH2)-18(2)-N9epsilon-(Ace-Asp1-Leu2-Gln3-Gln4-Leu5-Ser6-Ser7-Gln8-Lys9-Arg10-NH2)-di-propionamide [Example 8]”, for which, in series [1], the Specific activity came to 6.463 mol/g/min. Moreover, in series [1] (setting [6]), the turnover number (kcat) turned out to be 381 s⁻¹. The Km in series [1] (setting [7]) worked out at 96000 µM; in series [1] (setting [8]), 115 µM.

For the substance “3,7,12,17-tetramethyl-porphyrin-2(18)-N9epsilon-(Ace-Asp1-Glu2-Gln3-Gln4-Leu5-His6-Ser7-Gln8-Lys9-Leu10-Lys11-Ile12-Thr13-Leu14-NH2)-18(2)-N9epsilon-(Ace-Asp1-Glu2-Gln3-Gln4-Leu5-Ser6-Ser7-Gln8-Lys9-Arg10-NH2)-di-propionamide [Example 5]”, the Specific activity in series [1] is 11.72 mol/g/min; in series [1] (listed as Esempio 5), 11.716 mol/g/min. The kcat in series [1] (setting [6]) came out at 685 s⁻¹. Also, the Km in series [1] (setting [7]) was 54000 µM; in series [1] (setting [8]), 38 µM.

Take “3,7,12,17-tetramethylporphyrin-18(2)-propionicacid-2(18)-N9epsilon-(Ac-Asp1-Glu2-Gln3-Gln4-Leu5-His6-Ser7-Gln8-Lys9-Arg10-Lys11-Ile12-Thr13-Leu14-NH2)propionamide [Example 4]”: the Specific activity in series [1] was determined as 17.86 mol/g/min; in series [1] (listed as Esempio 4), 17.860 mol/g/min. Further, in series [1] (setting [6]), the catalytic constant (kcat) stood at 688 s⁻¹. Further, the Km worked out at 80000 µM in series [1] (setting [7]) and 130 µM in series [1] (setting [8]).

As to “Fe(III)-3,7,12,17-tetramethyl-porphyrin-2(18)-N9epsilon-(Ace-Asp1-Glu2-Gln3-Gln4-Leu5-His6-Ser7-Gln8-Lys9-Arg10-Lys11-Ile12-Thr13-Leu14-NH2)-18(2)-N9epsilon-(Ace-Asp1-Glu2-Gln3-Gln4-Leu5-Ser6-Ser7-Gln8-Lys9-Arg10-NH2)-di-propionammide [Example 1]”, the “total yield of nitrophenols (4- and 2-)” value in series [2] was “about 14.8%”. Moreover, the Km in series [3] (AH2 = guaiacol) worked out at 9.2 ± 0.4 µM; in series [1] (setting [7]), 44000 µM; in series [1] (setting [8]), 84 µM; in series [1] (AH2 = ABTS, pH 6.5, 50% TFE, 2.0×10^−7 M catalyst, read-out: Km^AH2) it was 84 ± 2 µM. For the same substance, the kcat in series [3] (guaiacol oxidation with H2O2) is 8.0 ± 0.1 s⁻¹; in series [1] (setting [6]), 370.9 ± 14 s⁻¹; in series [1] (ABTS oxidation with H2O2, pH 6.5, 50% TFE (v/v) 100 mM phosphate buffer, listed as Esempio 1), 371 s⁻¹. The “specific activity for guaiacol oxidation relative to horseradish peroxidase” value in series [3] (versus horseradish peroxidase) is “two times higher”. Moreover, the Specific activity in series [1] was 6.269 mol/g/min. In series [1] (pH=6.5), the “specific activity for ABTS oxidation” value worked out at 104 mmol/g/s.

Regarding “H-Cys-Ala-Gln-Cys-His-Thr-Val-Glu-OH (CAQCHTVE; heme covalently attached; printed: Cys-Ala-Gln-Cys-His-Thr-Val-Glu-) [MP8, microperoxidase, mono-adduct porphyrin obtained from proteolytic digestion of cytochromes c]”, in series [4], the Specific activity is 0.000104 mol/g/min and the kcat is 0.0026 s⁻¹.

With “H-VQKCAQCHTVE-OH (cysteine pairing not given here) [MP11]”, in series [4], the Specific activity is 0.000419 mol/g/min and the turnover number (kcat) was 0.013 s⁻¹.

Consider lactoperoxidase, for which, in series [5], the “total yield of nitrophenols relative to the compound of example 1” value is given as “fourfold higher”.
